{"source": "the supplement of paper PMC10567573", "parents": {"B1": {"name": "LYSMD4 (parent)", "chain": "LLQRELAQEDSLNKLALQYGCKVA"}, "B2": {"name": "MLL5 (parent)", "chain": "TYLCERCQPRNLDKERAVLLQRRK"}}}
{"variants_of": "B1", "test": "protein stability index of a GFP-peptide fusion (GPS, HEK-293T) (PSI 1-6); higher = more stable", "details": "c terminus: a fixed tail appended"}
{"variant": "LLQRELAQEDSLNKLALTYGCKVA", "protein stability index": 1.18}
{"variant": "LLQRELAQEDSLNKLALVYGCKVA", "protein stability index": 2.25}
{"variant": "LLQRELAQEDSLNKLALWYGCKVA", "protein stability index": 2.51}
{"variant": "LLQRELAQEDSLNKLALYYGCKVA", "protein stability index": 2.22}
{"variant": "LLQRELAQEDSLNKLALQAGCKVA", "protein stability index": 3.17}
{"variant": "LLQRELAQEDSLNKLALQCGCKVA", "protein stability index": 1.66}
{"variant": "LLQRELAQEDSLNKLALQDGCKVA", "protein stability index": 4.57}
{"variant": "LLQRELAQEDSLNKLALQFGCKVA", "protein stability index": 2.06}
{"variant": "LLQRELAQEDSLNKLALQIGCKVA", "protein stability index": 1.59}
{"variant": "LLQRELAQEDSLNKLALQKGCKVA", "protein stability index": 2.11}
{"variant": "LLQRELAQEDSLNKLALQLGCKVA", "protein stability index": 2.34}
{"variant": "LLQRELAQEDSLNKLALQMGCKVA", "protein stability index": 2.02}
{"variant": "LLQRELAQEDSLNKLALQNGCKVA", "protein stability index": 3.4}
{"variant": "LLQRELAQEDSLNKLALQPGCKVA", "protein stability index": 3.28}
{"variant": "LLQRELAQEDSLNKLALQQGCKVA", "protein stability index": 3.78}
{"variant": "LLQRELAQEDSLNKLALQRGCKVA", "protein stability index": 1.85}
{"variant": "LLQRELAQEDSLNKLALQSGCKVA", "protein stability index": 3.13}
{"variant": "LLQRELAQEDSLNKLALQTGCKVA", "protein stability index": 3.17}
{"variant": "LLQRELAQEDSLNKLALQVGCKVA", "protein stability index": 2.02}
{"variant": "LLQRELAQEDSLNKLALQYACKVA", "protein stability index": 1.09}
{"variant": "LLQRELAQEDSLNKLALQYCCKVA", "protein stability index": 1.65}
{"variant": "LLQRELAQEDSLNKLALQYDCKVA", "protein stability index": 2.94}
{"variant": "LLQRELAQEDSLNKLALQYECKVA", "protein stability index": 1.7}
{"variant": "LLQRELAQEDSLNKLALQYFCKVA", "protein stability index": 1.13}
{"variant": "LLQRELAQEDSLNKLALQYHCKVA", "protein stability index": 3.73}
{"variant": "LLQRELAQEDSLNKLALQYICKVA", "protein stability index": 2.42}
{"variant": "LLQRELAQEDSLNKLALQYKCKVA", "protein stability index": 1.62}
{"variant": "LLQRELAQEDSLNKLALQYMCKVA", "protein stability index": 3.62}
{"variant": "LLQRELAQEDSLNKLALQYNCKVA", "protein stability index": 2.37}
{"variant": "LLQRELAQEDSLNKLALQYPCKVA", "protein stability index": 2.66}
{"variant": "LLQRELAQEDSLNKLALQYQCKVA", "protein stability index": 4.53}
{"variant": "LLQRELAQEDSLNKLALQYSCKVA", "protein stability index": 1.72}
{"variant": "LLQRELAQEDSLNKLALQYVCKVA", "protein stability index": 1.31}
{"variant": "LLQRELAQEDSLNKLALQYWCKVA", "protein stability index": 3.05}
{"variant": "LLQRELAQEDSLNKLALQYYCKVA", "protein stability index": 1.74}
{"variant": "LLQRELAQEDSLNKLALQYGEKVA", "protein stability index": 3.43}
{"variant": "LLQRELAQEDSLNKLALQYGGKVA", "protein stability index": 2.66}
{"variant": "LLQRELAQEDSLNKLALQYGHKVA", "protein stability index": 2.89}
{"variant": "LLQRELAQEDSLNKLALQYGIKVA", "protein stability index": 1.91}
{"variant": "LLQRELAQEDSLNKLALQYGKKVA", "protein stability index": 2.63}
{"variant": "LLQRELAQEDSLNKLALQYGLKVA", "protein stability index": 1.95}
{"variant": "LLQRELAQEDSLNKLALQYGMKVA", "protein stability index": 1.47}
{"variant": "LLQRELAQEDSLNKLALQYGNKVA", "protein stability index": 3.29}
{"variant": "LLQRELAQEDSLNKLALQYGPKVA", "protein stability index": 2.59}
{"variant": "LLQRELAQEDSLNKLALQYGQKVA", "protein stability index": 2.98}
{"variant": "LLQRELAQEDSLNKLALQYGRKVA", "protein stability index": 2.54}
{"variant": "LLQRELAQEDSLNKLALQYGSKVA", "protein stability index": 2.49}
{"variant": "LLQRELAQEDSLNKLALQYGTKVA", "protein stability index": 3.03}
{"variant": "LLQRELAQEDSLNKLALQYGVKVA", "protein stability index": 1.85}
{"variant": "LLQRELAQEDSLNKLALQYGCAVA", "protein stability index": 2.7}
{"variant": "LLQRELAQEDSLNKLALQYGCDVA", "protein stability index": 2.08}
{"variant": "LLQRELAQEDSLNKLALQYGCEVA", "protein stability index": 3.75}
{"variant": "LLQRELAQEDSLNKLALQYGCGVA", "protein stability index": 2.93}
{"variant": "LLQRELAQEDSLNKLALQYGCHVA", "protein stability index": 3.15}
{"variant": "LLQRELAQEDSLNKLALQYGCIVA", "protein stability index": 1.78}
{"variant": "LLQRELAQEDSLNKLALQYGCLVA", "protein stability index": 1.62}
{"variant": "LLQRELAQEDSLNKLALQYGCNVA", "protein stability index": 2.65}
{"variant": "LLQRELAQEDSLNKLALQYGCPVA", "protein stability index": 3.45}
{"variant": "LLQRELAQEDSLNKLALQYGCQVA", "protein stability index": 2.21}
{"variant": "LLQRELAQEDSLNKLALQYGCRVA", "protein stability index": 1.29}
{"variant": "LLQRELAQEDSLNKLALQYGCSVA", "protein stability index": 2.2}
{"variant": "LLQRELAQEDSLNKLALQYGCTVA", "protein stability index": 1.32}
{"variant": "LLQRELAQEDSLNKLALQYGCYVA", "protein stability index": 1.35}
{"variant": "LLQRELAQEDSLNKLALQYGCKAA", "protein stability index": 3.18}
{"variant": "LLQRELAQEDSLNKLALQYGCKCA", "protein stability index": 1.83}
{"variant": "LLQRELAQEDSLNKLALQYGCKEA", "protein stability index": 3.4}
{"variant": "LLQRELAQEDSLNKLALQYGCKFA", "protein stability index": 2.96}
{"variant": "LLQRELAQEDSLNKLALQYGCKGA", "protein stability index": 2.35}
{"variant": "LLQRELAQEDSLNKLALQYGCKHA", "protein stability index": 2.77}
{"variant": "LLQRELAQEDSLNKLALQYGCKIA", "protein stability index": 1.89}
{"variant": "LLQRELAQEDSLNKLALQYGCKKA", "protein stability index": 2.92}
{"variant": "LLQRELAQEDSLNKLALQYGCKLA", "protein stability index": 2.04}
{"variant": "LLQRELAQEDSLNKLALQYGCKMA", "protein stability index": 1.75}
{"variant": "LLQRELAQEDSLNKLALQYGCKNA", "protein stability index": 3.62}
{"variant": "LLQRELAQEDSLNKLALQYGCKPA", "protein stability index": 3.4}
{"variant": "LLQRELAQEDSLNKLALQYGCKRA", "protein stability index": 2.47}
{"variant": "LLQRELAQEDSLNKLALQYGCKSA", "protein stability index": 2.9}
{"variant": "LLQRELAQEDSLNKLALQYGCKTA", "protein stability index": 2.58}
{"variant": "LLQRELAQEDSLNKLALQYGCKWA", "protein stability index": 2.34}
{"variant": "LLQRELAQEDSLNKLALQYGCKYA", "protein stability index": 2.45}
{"variant": "LLQRELAQEDSLNKLALQYGCKVC", "protein stability index": 3.03}
{"variant": "LLQRELAQEDSLNKLALQYGCKVD", "protein stability index": 2.37}
{"variant": "LLQRELAQEDSLNKLALQYGCKVG", "protein stability index": 2.1}
{"variant": "LLQRELAQEDSLNKLALQYGCKVH", "protein stability index": 1.03}
{"variant": "LLQRELAQEDSLNKLALQYGCKVK", "protein stability index": 1.82}
{"variant": "LLQRELAQEDSLNKLALQYGCKVN", "protein stability index": 1.98}
{"variant": "LLQRELAQEDSLNKLALQYGCKVP", "protein stability index": 2.64}
{"variant": "LLQRELAQEDSLNKLALQYGCKVR", "protein stability index": 1.95}
{"variant": "LLQRELAQEDSLNKLALQYGCKVT", "protein stability index": 2.19}
{"variant": "LLQRELAQEDSLNKLALQYGCKVV", "protein stability index": 3.02}
{"variant": "LLQRELAQEDSLNKLALQYGCKVW", "protein stability index": 4.48}
{"variant": "LLQRELAQEDSLNKLALQYGCKVY", "protein stability index": 2.75}
{"variants_of": "B2", "test": "protein stability index of a GFP-peptide fusion (GPS, HEK-293T) (PSI 1-6); higher = more stable", "details": "c terminus: a fixed tail appended"}
{"variant": "AYLCERCQPRNLDKERAVLLQRRK", "protein stability index": 2.29}
{"variant": "DYLCERCQPRNLDKERAVLLQRRK", "protein stability index": 2.73}
